Data on 14 sequences can be found in the supplement of paper PMC9170038.

In this series the test system is MS2 coat protein. Briefly: apparent KD of MS2 coat protein; higher = weaker reporter binding. Conditions: Eterna round: R107. The method, boiled down: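 Illumina sequencing clusters were used for on-chip transcription of designed RNA switches. Titration with SNAP-549-labelled MS2 coat protein followed, in twofold steps from 0.7 or 1.5 nM to 3 µM in 100 mM Tris-HCl pH 7.5, 80 mM KCl, 4 mM MgCl2, without or with constant ligand. Apparent KD is each design's median of fits to normalised cluster binding curves.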

[1] abbreviates: input ligand: theophylline 20 uM.
The mark [2] stands for this setting: input ligand: theophylline 2 mM.
[3] abbreviates: input ligand: tryptophan 2.4 mM.

Regarding “UCAUGCAGGUCGGCCGCCACUACACACAUGAGGAUCACCCAUGUAGUUACUGGGUGAAGUGGCAGUAGGACCGGGACCUGCACAU [Brourdmod16]”, the “apparent KD of MS2 coat protein” value by setting is: (input ligand: arginine 13.2 mM) 253 nM; (input ligand: none) 607 nM; under setting [1], 369 nM; under setting [2], 452 nM; under setting [3], 460 nM.
Consider “UCCAGACAUGAGGAUCACCCAUGUUGUGAUACCAGAACCGUGGAGUUCCCUUGGCAGCACUAAGAAGUUCCUGGAUCAGCUAGCG [theeternabot_sameState_MS2_Theo_A_9]”, for which the “apparent KD of MS2 coat protein” value by setting is: (input ligand: arginine 13.2 mM) 29.9 nM; under setting [1], 36.2 nM; under setting [3], 30 nM.
For “UCCUCCUCCGCAAGGAGGAGGAGUUGCGAUACCAGCACGGAAACGUGCCCUUGGCAGCGCACAUGAGGAUCACCCAUGUCAUGUU [#1 Exclusion - Theophylline A Attempt #9 (HarryS)]”, the “apparent KD of MS2 coat protein” value reads like this: (input ligand: arginine 13.2 mM) 18.7 nM; under setting [1], 23.8 nM; under setting [3], 16.3 nM.
Take “UCGAAUGCGGCGGCCGCCACUCGCGGAUAACGAUAGCUUAACAUGAGGAUCACCCAUGUGUCAUGGAGGACCGGGCCCAUACGGU [kmkmullin]”: the “apparent KD of MS2 coat protein” value (input ligand: arginine 13.2 mM) was determined as 13.5 nM; the “apparent KD of MS2 coat protein” value (input ligand: none) was found to be 17 nM; the “apparent KD of MS2 coat protein” value under setting [1] stood at 23.2 nM; the “apparent KD of MS2 coat protein” value under setting [2] turned out to be 18.7 nM; the “apparent KD of MS2 coat protein” value under setting [3] was 14.3 nM.
With “UCGCACAUGAGGAUCACCCAUGUACUAGAUACCAGUGACGCGGUGCACCCUUGGCAGCUGGUGCUGAGUGAUGGUUCCCUCGGCA [Exclusion Theophylline A GF8]”, the “apparent KD of MS2 coat protein” value reads like this: (input ligand: arginine 13.2 mM) 53.5 nM; under setting [1], 137 nM; under setting [3], 112 nM.
As for “UCGCCCGGGUCGGCCGCCACUGCGGUGAUGUGACAUGAGGAUCACCCAUGUUGUCAUGUGGCACAUAGGACCGGGACCCGGGCGA [Exclusion - Tryptophan B Attempt #4 (HarryS)]”, the “apparent KD of MS2 coat protein” value amounted to 23.2 nM (input ligand: arginine 13.2 mM), 45.3 nM under setting [1] and 40.3 nM under setting [2].
For the sequence “UCGCUCUGGGUGAAUCCCAGAGAUGUGGAAGGAGCGGACGAAAGUCCAGGUAGGUCGCCAUCGAACAUGAGGAUCACCCAUGUAC [Same State - Arginine A (Freestyle 26)]”, the “apparent KD of MS2 coat protein” value (input ligand: arginine 13.2 mM) came to 42.7 nM; the “apparent KD of MS2 coat protein” value (input ligand: none) amounted to 46 nM; the “apparent KD of MS2 coat protein” value under setting [1] was found to be 77.5 nM; the “apparent KD of MS2 coat protein” value under setting [2] stood at 75.6 nM; the “apparent KD of MS2 coat protein” value under setting [3] was found to be 46.2 nM.
For “UCGCUCUGGGUGAAUCCCAGAGAUGUGGAAGGAGCGGAGGAAACUCCAGGUAGGUCGCCAUCGAACAUGAGGAUCACCCAUGUAC [Same State - Arginine A (Freestyle 28)]”, in that order: 35.6 nM, 56.8 nM, 60.7 nM, 66.4 nM and 46.4 nM.
In the case of “UCGGAGAAGUCGGCCGCCACUGAACUCUUGUUCUACAUGAGGAUCACCCAUGUUCCUUUGUUUAACAGGACCGGGACUUAUACGA [JR_SSTryptoB_Sub009]”, the “apparent KD of MS2 coat protein” value (input ligand: arginine 13.2 mM) was 108 nM, the “apparent KD of MS2 coat protein” value under setting [1] stood at 283 nM and the “apparent KD of MS2 coat protein” value under setting [2] was found to be 346 nM.
Regarding “UCGGGCAGAGCGGCCGCCACUGUUUGGCAUGCGGAUGAAGGAACAUGAGGAUCACCCAUGUAGAUUAGGACCGGGCUAGCGGAGA [sscsmullin]”, the “apparent KD of MS2 coat protein” value runs as follows: (input ligand: arginine 13.2 mM) 12.1 nM; (input ligand: none) 17.2 nM; under setting [1], 42.1 nM; under setting [2], 18.4 nM; under setting [3], 16.3 nM.
As to “UCGUGUGUUUCGGAUACCAGUGAAAUCGAUACAUGAGGAUCACCCAUGUGAGAGGAUGUACACCCUUGGCAGCUGUCUGUAGCGG [asczmullin]”, the “apparent KD of MS2 coat protein” value stood at 26.9 nM (input ligand: arginine 13.2 mM), 38 nM under setting [1] and 38.3 nM under setting [3].
With “UGAAAGUAGGGAAGGAGCGCUACAACAUGAGGAUCACCCAUGUUAUGAGGAUCACCCAUGUGGCAGGUAGGUCGCCCAAAACAUG [Same State Arginine B]”, the “apparent KD of MS2 coat protein” value runs as follows: (input ligand: arginine 13.2 mM) 41.3 nM; (input ligand: none) 77 nM; under setting [1], 95.1 nM; under setting [2], 92.7 nM; under setting [3], 68 nM.
Regarding “UGACAUGAGGAUCACCCAUGUUUAGAUGAACGAGGACCGGUACGGCCGCCACUCGAUAAGUGGAAAGAGCGAGGGAUCGCAUGCU [Same State Trp A GF5]”, the “apparent KD of MS2 coat protein” value is, setting by setting: (input ligand: arginine 13.2 mM) 12.1 nM; (input ligand: none) 12.9 nM; under setting [1], 17.5 nM; under setting [2], 12.9 nM; under setting [3], 14.4 nM.
For “UGACAUUGCUCAGAUACCAGACAUGAGGAUCACCCAUGUACCAAGGUAAAGAAAUAACGUGUCCCUUGGCAGCUGAGCAAUGUCU [TheoBX 1 #MS2Left #Theo2]”, the “apparent KD of MS2 coat protein” value by setting is: (input ligand: arginine 13.2 mM) 10.6 nM; under setting [1], 14.8 nM; under setting [3], 10.4 nM.
